B1: 5.20 (antibody, V domains shown)
VH: GPGLLKPSETLSLTCAVSGDSISGGYYWSWIRQSPGKGLEWIGHIYGSTADTRYNPSLKSRVTISKDTRKNQLSLQLRSVTAADTAVYYCARSGYNFWSGEYYGLDSWGQGAVVTVSS
VL: TQSPSSLSAYVGDKVTITCHASQGINSWLAWYQQKPGKAPKLLIYKASSLQSGVPSRFSGSGSGTDYTLTISSLQSEDFASYYCLQYDSAPLAFGPGTKLDIK
B2: 5.15 (antibody, V domains shown)
VH: B1 VH with R69S, S117A
VL: B1 VL
B3: J24-15 (antibody, V domains shown)
VH: QVQLQESGPGLLKPSETLSLTCAVSGDSISGGYYWSWIRQSPGKGLEWIGHIYGSTADTRYNPSLKSRVTISKDTSKNQLSLQLRSVTAADTAVYYCARSGYNFWSGEYYGLDLWGQGAVVTVSS
VL: AIQLTQSPSSLSAYVGDKVTITCHASQGINSWLAWYQQKPGKAPKLLIYKARSLQSGVPSRFSGSGSGTDYTLTISSLQSEDFASYYCLQYDSAPLAFGPGTKLDIK
B4: J24-7 (antibody, V domains shown)
VH: B3 VH with L114S
VL: B3 VL with H24R, R52S, S56E
B5: v2 (antibody, V domains shown)
VH: B3 VH with G31S, R60K, K66R, L114S
VL: B3 VL with R52S
B6: 35PA83 Fab (parent) (antibody, V domains shown)
VH: B1 VH with R69S
VL: B1 VL

As usually defined, the Kd is the constant that tells how readily two partners part at equilibrium. The low end stands for tighter binding, the high end for weaker binding.

Numbering of substitutions follows the chain as printed.

The target of one assay is PA83 protective antigen (Bacillus anthracis, UniProt P13423). Put plainly: SPR. Background: In SPR one partner is held on a chip, and binding of the other changes the refractive index at the surface.
Target sequence in this assay (P13423 30-764): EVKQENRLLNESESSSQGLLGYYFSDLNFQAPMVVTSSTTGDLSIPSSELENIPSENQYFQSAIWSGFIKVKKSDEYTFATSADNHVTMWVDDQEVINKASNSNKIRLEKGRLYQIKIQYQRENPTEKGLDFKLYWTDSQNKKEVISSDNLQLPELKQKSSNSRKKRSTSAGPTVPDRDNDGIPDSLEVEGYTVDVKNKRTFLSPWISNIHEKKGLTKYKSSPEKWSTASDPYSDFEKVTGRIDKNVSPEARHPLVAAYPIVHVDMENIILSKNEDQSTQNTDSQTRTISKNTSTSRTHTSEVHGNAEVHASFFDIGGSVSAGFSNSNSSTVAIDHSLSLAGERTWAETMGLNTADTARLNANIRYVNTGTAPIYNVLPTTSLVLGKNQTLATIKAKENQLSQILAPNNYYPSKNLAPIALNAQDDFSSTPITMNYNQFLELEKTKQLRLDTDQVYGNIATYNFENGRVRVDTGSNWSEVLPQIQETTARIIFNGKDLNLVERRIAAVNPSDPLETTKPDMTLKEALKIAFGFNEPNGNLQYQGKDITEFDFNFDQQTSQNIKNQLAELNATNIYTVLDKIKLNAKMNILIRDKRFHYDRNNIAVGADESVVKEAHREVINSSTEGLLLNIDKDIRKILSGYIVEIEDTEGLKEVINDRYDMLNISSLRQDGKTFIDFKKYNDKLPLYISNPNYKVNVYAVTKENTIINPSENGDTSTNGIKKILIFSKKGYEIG
As for B1, the affinity, expressed as Kd, was 12.2 nM.
B2 displayed a Kd of 3.5 nM.

Another assay shares this target. Put plainly: SPR. The source holds these as a separate data set.
Target sequence in this assay (P13423 30-764): as above
B3: the Kd was 0.88 nM.
The same measure, in the same setting: the figure for B4 is 0.78 nM; for B5 it is 0.66 nM; for B6 it is 3.4 nM.

Values taken from patent publication US8507655.
